Test results: publication PMC7195491

T1: Dpr11 (Defective proboscis extension response 11), extracellular region, Q8MRE6
T1 chain: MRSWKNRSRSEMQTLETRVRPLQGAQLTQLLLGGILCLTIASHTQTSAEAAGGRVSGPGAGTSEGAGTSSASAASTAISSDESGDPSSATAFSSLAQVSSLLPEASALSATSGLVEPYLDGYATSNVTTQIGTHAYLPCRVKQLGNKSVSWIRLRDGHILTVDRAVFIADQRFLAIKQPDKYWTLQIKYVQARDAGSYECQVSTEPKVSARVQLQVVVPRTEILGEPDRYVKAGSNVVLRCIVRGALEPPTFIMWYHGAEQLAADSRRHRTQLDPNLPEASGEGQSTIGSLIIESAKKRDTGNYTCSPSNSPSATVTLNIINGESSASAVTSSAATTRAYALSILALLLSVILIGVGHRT

T2: DIP-γ (Dpr Interacting Protein gamma), extracellular region, Q9VAR6
T2 chain: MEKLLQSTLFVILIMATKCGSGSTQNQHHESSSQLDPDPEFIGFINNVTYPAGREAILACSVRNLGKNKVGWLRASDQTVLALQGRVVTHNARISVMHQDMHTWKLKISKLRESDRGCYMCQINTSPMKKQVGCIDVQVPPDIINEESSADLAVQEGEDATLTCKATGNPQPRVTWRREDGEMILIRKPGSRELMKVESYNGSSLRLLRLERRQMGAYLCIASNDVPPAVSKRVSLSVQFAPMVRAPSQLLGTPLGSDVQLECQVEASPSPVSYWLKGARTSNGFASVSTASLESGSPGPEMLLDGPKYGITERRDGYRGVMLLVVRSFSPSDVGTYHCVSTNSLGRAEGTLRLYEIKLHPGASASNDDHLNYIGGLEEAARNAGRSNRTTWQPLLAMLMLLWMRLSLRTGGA

T3: DIP-α (Dpr Interacting Protein alpha), extracellular region, Q9W4R3
T3 chain: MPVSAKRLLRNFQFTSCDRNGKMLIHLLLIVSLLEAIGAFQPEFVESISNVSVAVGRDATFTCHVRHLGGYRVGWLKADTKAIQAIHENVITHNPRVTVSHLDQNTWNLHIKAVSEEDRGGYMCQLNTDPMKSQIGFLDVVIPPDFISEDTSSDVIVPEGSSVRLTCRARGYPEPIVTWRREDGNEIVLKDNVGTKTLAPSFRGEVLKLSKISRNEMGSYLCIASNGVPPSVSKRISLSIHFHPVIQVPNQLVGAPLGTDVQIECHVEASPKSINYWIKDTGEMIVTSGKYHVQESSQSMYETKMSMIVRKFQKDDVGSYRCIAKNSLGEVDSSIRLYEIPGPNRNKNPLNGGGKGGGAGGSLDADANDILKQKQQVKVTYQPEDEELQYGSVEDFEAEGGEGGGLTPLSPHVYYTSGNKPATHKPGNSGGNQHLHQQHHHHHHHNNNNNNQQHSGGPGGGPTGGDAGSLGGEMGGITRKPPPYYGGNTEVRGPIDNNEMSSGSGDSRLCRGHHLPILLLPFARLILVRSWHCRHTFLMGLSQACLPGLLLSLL


Experiments:
Assay in all cases: SPR
[1] = biological target: T1, Dpr11 (Defective proboscis extension …); conditions: chain shown with the change; 25 °C; 10 mM Tris-HCl, pH 7.2, 150 mM NaCl, 1 mM EDTA, 1 mg mL−1 BSA, 0.01% (v/v) Tween-20; analyte 81 to 0.012 μM, three-fold dilution series
[2] = biological target: T2, DIP-γ (Dpr Interacting Protein gamma), …; conditions: chain shown with the change; 25 °C; 10 mM Tris-HCl, pH 7.2, 150 mM NaCl, 1 mM EDTA, 1 mg mL−1 BSA, 0.01% (v/v) Tween-20; analyte 81 to 0.012 μM, three-fold dilution series
[3] = biological target: T3, DIP-α (Dpr Interacting Protein alpha), …; conditions: chain shown with the change; 25 °C; 10 mM Tris-HCl, pH 7.2, 150 mM NaCl, 1 mM EDTA, 1 mg mL−1 BSA, 0.01% (v/v) Tween-20; analyte 81 to 0.012 μM, three-fold dilution series; parent: 0.0 kcal/mol

Binder | ddG [2] [kcal/mol] | also measured
DIP-γ (Dpr Interacting Protein gamma), extracellular region, Q9VAR6 D77T (protein) MEKLLQSTLFVILIMATKCGSGSTQNQHHESSSQLDPDPEFIGFINNVTYPAGREAILACSVRNLGKNKVGWLRASTQTVLALQGRVVTHNARISVMHQDMHTWKLKISKLRESDRGCYMCQINTSPMKKQVGCIDVQVPPDIINEESSADLAVQEGEDATLTCKATGNPQPRVTWRREDGEMILIRKPGSRELMKVESYNGSSLRLLRLERRQMGAYLCIASNDVPPAVSKRVSLSVQFAPMVRAPSQLLGTPLGSDVQLECQVEASPSPVSYWLKGARTSNGFASVSTASLESGSPGPEMLLDGPKYGITERRDGYRGVMLLVVRSFSPSDVGTYHCVSTNSLGRAEGTLRLYEIKLHPGASASNDDHLNYIGGLEEAARNAGRSNRTTWQPLLAMLMLLWMRLSLRTGGA | – | ddG [1]: 0.9 kcal/mol
Dpr11 (Defective proboscis extension response 11), extracellular region, Q8MRE6 K207V (protein) MRSWKNRSRSEMQTLETRVRPLQGAQLTQLLLGGILCLTIASHTQTSAEAAGGRVSGPGAGTSEGAGTSSASAASTAISSDESGDPSSATAFSSLAQVSSLLPEASALSATSGLVEPYLDGYATSNVTTQIGTHAYLPCRVKQLGNKSVSWIRLRDGHILTVDRAVFIADQRFLAIKQPDKYWTLQIKYVQARDAGSYECQVSTEPVVSARVQLQVVVPRTEILGEPDRYVKAGSNVVLRCIVRGALEPPTFIMWYHGAEQLAADSRRHRTQLDPNLPEASGEGQSTIGSLIIESAKKRDTGNYTCSPSNSPSATVTLNIINGESSASAVTSSAATTRAYALSILALLLSVILIGVGHRT | 0.6 | –
Dpr11 (Defective proboscis extension response 11), extracellular region, Q8MRE6 E205Q; K207V (protein) MRSWKNRSRSEMQTLETRVRPLQGAQLTQLLLGGILCLTIASHTQTSAEAAGGRVSGPGAGTSEGAGTSSASAASTAISSDESGDPSSATAFSSLAQVSSLLPEASALSATSGLVEPYLDGYATSNVTTQIGTHAYLPCRVKQLGNKSVSWIRLRDGHILTVDRAVFIADQRFLAIKQPDKYWTLQIKYVQARDAGSYECQVSTQPVVSARVQLQVVVPRTEILGEPDRYVKAGSNVVLRCIVRGALEPPTFIMWYHGAEQLAADSRRHRTQLDPNLPEASGEGQSTIGSLIIESAKKRDTGNYTCSPSNSPSATVTLNIINGESSASAVTSSAATTRAYALSILALLLSVILIGVGHRT | 1.7 | –
Dpr11 (Defective proboscis extension response 11), extracellular region, Q8MRE6 K207V; E205Q; G157L (protein) MRSWKNRSRSEMQTLETRVRPLQGAQLTQLLLGGILCLTIASHTQTSAEAAGGRVSGPGAGTSEGAGTSSASAASTAISSDESGDPSSATAFSSLAQVSSLLPEASALSATSGLVEPYLDGYATSNVTTQIGTHAYLPCRVKQLGNKSVSWIRLRDLHILTVDRAVFIADQRFLAIKQPDKYWTLQIKYVQARDAGSYECQVSTQPVVSARVQLQVVVPRTEILGEPDRYVKAGSNVVLRCIVRGALEPPTFIMWYHGAEQLAADSRRHRTQLDPNLPEASGEGQSTIGSLIIESAKKRDTGNYTCSPSNSPSATVTLNIINGESSASAVTSSAATTRAYALSILALLLSVILIGVGHRT | – | ddG [3]: < -2 kcal/mol
